Measurements from PMC11574045, “A cofactor-induced repressive type of transcription factor condensation can be induced by synthetic peptides to suppress tumorigenesis” (The EMBO Journal, 2024).

Test system: HEK293FT cells transfected with TF library
Test: Screening of TF condensates based on fluorescent puncta
Type: cell-based
Conditions: Figure 1B numerical data; TF library screen, one value per transcriptional factor
Experimental: TF plasmids were automatically added to black-walled 384-well plates at 80 ng per well to reach a final concentration of 1.6 μg/ml. Polyethylenimine (PEI, Sigma) was then added to the plasmid-loaded plates at 240 ng per well (4.8 μg/ml). Subsequently, HEK293FT cells were seeded into the plate at 2000 cells per well. After 60 h, cells were cultured in medium with or without glucose for 12 h, and then fixed with 4% paraformaldehyde (PFA) at room temperature for 30 min. After three washes with PBS, fixed cells were permeabilized with 0.05% Triton X-100 for 15 min. Thereafter, cells were blocked with 5% BSA for 1 h, and then incubated overnight with anti-Flag (Sigma F3165, 1:200) and anti-GAL4 (Abbkine ABP57232, 1:200) primary antibodies at 4 °C. The cells were then gently washed with PBS, followed by being incubated with Alexa Fluor Plus 488 goat anti-mouse IgG secondary antibody (Thermo A32723, 1:400) or Alexa Fluor Plus 488 goat anti-rabbit IgG secondary antibody (Thermo A32731, 1:400) for 1 h. The plates were kept at 4 °C in the dark before being analyzed using an Opera System (Perkin Elmer). Fifty random fields per well were scanned and analyzed using the Columbus Plus Image Data Storage and Analysis System (Perkin Elmer).

B1: AES (protein, UniProt Q08117 1-197, looked up)
TLE family member 5: MMFPQSRHSGSSHLPQQLKFTTSDSCDRIKDEFQLLQAQYHSLKLECDKLASEKSEMQRHYVMYYEMSYGLNIEMHKQAEIVKRLNGICAQVLPYLSQEHQQQVLGAIERAKQVTAPELNSIIRQQLQAHQLSQLQALALPLTPLPVGLQPPSLPAVSAGTGLLSLSALGSQAHLSKEDKNGHDGDTHQEDDGEKSD
Z score of condensed fraction: -0.7544

B2: EID1 (protein, UniProt Q9Y6B2 1-187, looked up)
EP300-interacting inhibitor …: MSEMAELSELYEESSDLQMDVMPGEGDLPQMEVGSGSRELSLRPSRSGAQQLEEEGPMEEEEAQPMAAPEGKRSLANGPNAGEQPGQVAGADFESEDEGEEFDDWEDDYDYPEEEQLSGAGYRVSAALEEADKMFLRTREPALDGGFQMHYEKTPFDQLAFIEELFSLMVVNRLTEELGCDEIIDRE
Z score of condensed fraction: 1.007

B3: ERF (protein, UniProt P50548 1-548, looked up)
ETS domain-containing …: MKTPADTGFAFPDWAYKPESSPGSRQIQLWHFILELLRKEEYQGVIAWQGDYGEFVIKDPDEVARLWGVRKCKPQMNYDKLSRALRYYYNKRILHKTKGKRFTYKFNFNKLVLVNYPFIDVGLAGGAVPQSAPPVPSGGSHFRFPPSTPSEVLSPTEDPRSPPACSSSSSSLFSAVVARRLGRGSVSDCSDGTSELEEPLGEDPRARPPGPPDLGAFRGPPLARLPHDPGVFRVYPRPRGGPEPLSPFPVSPLAGPGSLLPPQLSPALPMTPTHLAYTPSPTLSPMYPSGGGGPSGSGGGSHFSFSPEDMKRYLQAHTQSVYNYHLSPRAFLHYPGLVVPQPQRPDKCPLPPMAPETPPVPSSASSSSSSSSSPFKFKLQPPPLGRRQRAAGEKAVAGADKSGGSAGGLAEGAGALAPPPPPPQIKVEPISEGESEEVEVTDISDEDEEDGEVFKTPRAPPAPPKPEPGEAPGASQCMPLKLRFKRRWSEDCRLEGGGGPAGGFEDEGEDKKVRGEGPGEAGGPLTPRRVSSDLQHATAQLSLEHRDS
Z score of condensed fraction: -0.2253

B4: EDF1 (protein, UniProt O60869 2-148, looked up)
Endothelial …: AESDWDTVTVLRKKGPTAAQAKSKQAILAAQRRGEDVETSKKWAAGQNKQHSITKNTAKLDRETEELHHDRVTLEVGKVIQQGRQSKGLTQKDLATKINEKPQVIADYESGRAIPNNQVLGKIERAIGLKLRGKDIGKPIEKGPRAK
Z score of condensed fraction: -0.3636

B5: ENY2 (protein, UniProt Q9NPA8 1-101, looked up)
Transcription and mRNA export …: MVVSKMNKDAQMRAAINQKLIETGERERLKELLRAKLIECGWKDQLKAHCKEVIKEKGLEHVTVDDLVAEITPKGRALVPDSVKKELLQRIRTFLAQHASL
Z score of condensed fraction: -0.6608

B6: ELF3 (protein, UniProt P78545 1-371, looked up)
ETS-related transcription …: MAATCEISNIFSNYFSAMYSSEDSTLASVPPAATFGADDLVLTLSNPQMSLEGTEKASWLGEQPQFWSKTQVLDWISYQVEKNKYDASAIDFSRCDMDGATLCNCALEELRLVFGPLGDQLHAQLRDLTSSSSDELSWIIELLEKDGMAFQEALDPGPFDQGSPFAQELLDDGQQASPYHPGSCGAGAPSPGSSDVSTAGTGASRSSHSSDSGGSDVDLDPTDGKLFPSDGFRDCKKGDPKHGKRKRGRPRKLSKEYWDCLEGKKSKHAPRGTHLWEFIRDILIHPELNEGLMKWENRHEGVFKFLRSEAVAQLWGQKKKNSNMTYEKLSRAMRYYYKREILERVDGRRLVYKFGKNSSGWKEEEVLQSRN
Z score of condensed fraction: -0.7241

B7: EN2 (protein, UniProt P19622 1-333, looked up)
Homeobox protein engrailed-2: MEENDPKPGEAAAAVEGQRQPESSPGGGSGGGGGSSPGEADTGRRRALMLPAVLQAPGNHQHPHRITNFFIDNILRPEFGRRKDAGTCCAGAGGGRGGGAGGEGGASGAEGGGGAGGSEQLLGSGSREPRQNPPCAPGAGGPLPAAGSDSPGDGEGGSKTLSLHGGAKKGGDPGGPLDGSLKARGLGGGDLSVSSDSDSSQAGANLGAQPMLWPAWVYCTRYSDRPSSGPRSRKPKKKNPNKEDKRPRTAFTAEQLQRLKAEFQTNRYLTEQRRQSLAQELSLNESQIKIWFQNKRAKIKKATGNKNTLAVHLMAQGLYNHSTTAKEGKSDSE
Z score of condensed fraction: 2.005

B8: AEBP2 (protein, UniProt Q6ZN18 2-517, looked up)
Zinc finger protein AEBP2: AAAITDMADLEELSRLSPLPPGSPGSAARGRAEPPEEEEEEEEEEEEAEAEAVAALLLNGGSGGGGGGGGGGVGGGEAETMSEPSPESASQAGEDEDEEEDDEEEEDESSSSGGGEEESSAESLVGSSGGSSSDETRSLSPGAASSSSGDGDGKEGLEEPKGPRGSQGGGGGGSSSSSVVSSGGDEGYGTGGGGSSATSGGRRGSLEMSSDGEPLSRMDSEDSISSTIMDVDSTISSGRSTPAMMNGQGSTTSSSKNIAYNCCWDQCQACFNSSPDLADHIRSIHVDGQRGGVFVCLWKGCKVYNTPSTSQSWLQRHMLTHSGDKPFKCVVGGCNASFASQGGLARHVPTHFSQQNSSKVSSQPKAKEESPSKAGMNKRRKLKNKRRRSLPRPHDFFDAQTLDAIRHRAICFNLSAHIESLGKGHSVVFHSTVIAKRKEDSGKIKLLLHWMPEDILPDVWVNESERHQLKTKVVHLSKLPKDTALLLDPNIYRTMPQKRLKRTLIRKVFNLYLSKQ
Z score of condensed fraction: 0.1647

B9: ELK1 (protein, UniProt P19419 1-428, looked up)
ETS domain-containing protein …: MDPSVTLWQFLLQLLREQGNGHIISWTSRDGGEFKLVDAEEVARLWGLRKNKTNMNYDKLSRALRYYYDKNIIRKVSGQKFVYKFVSYPEVAGCSTEDCPPQPEVSVTSTMPNVAPAAIHAAPGDTVSGKPGTPKGAGMAGPGGLARSSRNEYMRSGLYSTFTIQSLQPQPPPHPRPAVVLPSAAPAGAAAPPSGSRSTSPSPLEACLEAEEAGLPLQVILTPPEAPNLKSEELNVEPGLGRALPPEVKVEGPKEELEVAGERGFVPETTKAEPEVPPQEGVPARLPAVVMDTAGQAGGHAASSPEISQPQKGRKPRDLELPLSPSLLGGPGPERTPGSGSGSGLQAPGPALTPSLLPTHTLTPVLLTPSSLPPSIHFWSTLSPIAPRSPAKLSFQFPSSGSAQVHIPSISVDGLSTPVVLSPGPQKP
Z score of condensed fraction: -0.5027

B10: EMX1 (protein, UniProt Q04741 1-290, looked up)
Homeobox protein EMX1: MCLAGCTPRKAAAPGRGALPRARLPRTAPAAATMFQPAAKRGFTIESLVAKDGGTGGGTGGGGAGSHLLAAAASEEPLRPTALNYPHPSAAEAAFVSGFPAAAAAGAGRSLYGGPELVFPEAMNHPALTVHPAHQLGASPLQPPHSFFGAQHRDPLHFYPWVLRNRFFGHRFQASDVPQDGLLLHGPFARKPKRIRTAFSPSQLLRLERAFEKNHYVVGAERKQLAGSLSLSETQVKVWFQNRRTKYKRQKLEEEGPESEQKKKGSHHINRWRIATKQANGEDIDVTSND
Z score of condensed fraction: -0.9497

B11: ERCC3 (protein, UniProt P19447 1-782, looked up)
General transcription and DNA …: MGKRDRADRDKKKSRKRHYEDEEDDEEDAPGNDPQEAVPSAAGKQVDESGTKVDEYGAKDYRLQMPLKDDHTSRPLWVAPDGHIFLEAFSPVYKYAQDFLVAIAEPVCRPTHVHEYKLTAYSLYAAVSVGLQTSDITEYLRKLSKTGVPDGIMQFIKLCTVSYGKVKLVLKHNRYFVESCHPDVIQHLLQDPVIRECRLRNSEGEATELITETFTSKSAISKTAESSGGPSTSRVTDPQGKSDIPMDLFDFYEQMDKDEEEEEETQTVSFEVKQEMIEELQKRCIHLEYPLLAEYDFRNDSVNPDINIDLKPTAVLRPYQEKSLRKMFGNGRARSGVIVLPCGAGKSLVGVTAACTVRKRCLVLGNSAVSVEQWKAQFKMWSTIDDSQICRFTSDAKDKPIGCSVAISTYSMLGHTTKRSWEAERVMEWLKTQEWGLMILDEVHTIPAKMFRRVLTIVQAHCKLGLTATLVREDDKIVDLNFLIGPKLYEANWMELQNNGYIAKVQCAEVWCPMSPEFYREYVAIKTKKRILLYTMNPNKFRACQFLIKFHERRNDKIIVFADNVFALKEYAIRLNKPYIYGPTSQGERMQILQNFKHNPKINTIFISKVGDTSFDLPEANVLIQISSHGGSRRQEAQRLGRVLRAKKGMVAEEYNAFFYSLVSQDTQEMAYSTKRQRFLVDQGYSFKVITKLAGMEEEDLAFSTKEEQQQLLQKVLAATDLDAEEEVVAGEFGSRSSQASRRFGTMSSMSGADDTVYMEYHSSRSKAPSKHVHPLFKRFRK
Z score of condensed fraction: -0.7686

B12: ADNP (protein, UniProt Q9H2P0 1-1102, looked up)
Activity-dependent …: MFQLPVNNLGSLRKARKTVKKILSDIGLEYCKEHIEDFKQFEPNDFYLKNTTWEDVGLWDPSLTKNQDYRTKPFCCSACPFSSKFFSAYKSHFRNVHSEDFENRILLNCPYCTFNADKKTLETHIKIFHAPNASAPSSSLSTFKDKNKNDGLKPKQADSVEQAVYYCKKCTYRDPLYEIVRKHIYREHFQHVAAPYIAKAGEKSLNGAVPLGSNAREESSIHCKRCLFMPKSYEALVQHVIEDHERIGYQVTAMIGHTNVVVPRSKPLMLIAPKPQDKKSMGLPPRIGSLASGNVRSLPSQQMVNRLSIPKPNLNSTGVNMMSSVHLQQNNYGVKSVGQGYSVGQSMRLGLGGNAPVSIPQQSQSVKQLLPSGNGRSYGLGSEQRSQAPARYSLQSANASSLSSGQLKSPSLSQSQASRVLGQSSSKPAAAATGPPPGNTSSTQKWKICTICNELFPENVYSVHFEKEHKAEKVPAVANYIMKIHNFTSKCLYCNRYLPTDTLLNHMLIHGLSCPYCRSTFNDVEKMAAHMRMVHIDEEMGPKTDSTLSFDLTLQQGSHTNIHLLVTTYNLRDAPAESVAYHAQNNPPVPPKPQPKVQEKADIPVKSSPQAAVPYKKDVGKTLCPLCFSILKGPISDALAHHLRERHQVIQTVHPVEKKLTYKCIHCLGVYTSNMTASTITLHLVHCRGVGKTQNGQDKTNAPSRLNQSPSLAPVKRTYEQMEFPLLKKRKLDDDSDSPSFFEEKPEEPVVLALDPKGHEDDSYEARKSFLTKYFNKQPYPTRREIEKLAASLWLWKSDIASHFSNKRKKCVRDCEKYKPGVLLGFNMKELNKVKHEMDFDAEWLFENHDEKDSRVNASKTADKKLNLGKEDDSSSDSFENLEEESNESGSPFDPVFEVEPKISNDNPEEHVLKVIPEDASESEEKLDQKEDGSKYETIHLTEEPTKLMHNASDSEVDQDDVVEWKDGASPSESGPGSQQVSDFEDNTCEMKPGTWSDESSQSEDARSSKPAAKKKATMQGDREQLKWKNSSYGKVEGFWSKDQSQWKNASENDERLSNPQIEWQNSTIDSEDGEQFDNMTDGVAEPMHGSLAGVKLSSQQA
Z score of condensed fraction: -0.6304
